T1: FcγRIIb extracellular domain with C-terminal His tag (human, UniProt P31994 43-217)
T1 construct: extracellular domain; expressed in FreeStyle293 cells; analyte in the Biacore assay; also called FcgRIIb; 2b; not shown: His tag at the C terminus
T1 sequence (looked up): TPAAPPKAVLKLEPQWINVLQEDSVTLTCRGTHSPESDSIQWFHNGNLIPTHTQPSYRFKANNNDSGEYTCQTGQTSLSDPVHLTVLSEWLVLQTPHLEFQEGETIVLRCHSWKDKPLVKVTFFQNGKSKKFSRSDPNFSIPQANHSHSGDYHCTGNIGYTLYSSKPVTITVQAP

B1: GpH7-B3 variant G237_04F/GpL16-k0 (antibody, human IgG1, kappa)
heavy: not shown
light: DIVMTQSPLSLPVTPGEPASISCQASESLVHSNRNTYLHWYLQKPGQSPQLLIYKVSNRFSGVPDRFSGSGSGTDFTLKISRVEAEDVGVYYCSQNTHVPPTFGQGTKVEIERTVAAPSVFIFPPSDEQLKSGTASVVCLLNNFYPREAKVQWKVDNALQSGNSQESVTEQDSKDSTYSLSSTLTLSKADYEKHKVYACEVTHQGLSSPVTKSFNRGEC
notes: homodimerized; mutation in both H chains; also called Ho Ab G237_04F
B2: GpH7-B3 variant K326_04F/GpL16-k0 (antibody, human IgG1, kappa)
heavy: not shown
light: B1 light
notes: homodimerized; mutation in both H chains; also called Ho Ab K326_04F
B3: GpH7-B3 variant I332_09D/GpL16-k0 (antibody, human IgG1, kappa)
heavy: not shown
light: B1 light
notes: homodimerized; mutation in both H chains; also called Ho Ab I332_09D
B4: GpH7-B3 variant H268_01G/GpL16-k0 (antibody, human IgG1, kappa)
heavy: not shown
light: B1 light
notes: homodimerized; mutation in both H chains; also called Ho Ab H268_01G
B5: GpH7-B3 variant I332_14T/GpL16-k0 (antibody, human IgG1, kappa)
heavy: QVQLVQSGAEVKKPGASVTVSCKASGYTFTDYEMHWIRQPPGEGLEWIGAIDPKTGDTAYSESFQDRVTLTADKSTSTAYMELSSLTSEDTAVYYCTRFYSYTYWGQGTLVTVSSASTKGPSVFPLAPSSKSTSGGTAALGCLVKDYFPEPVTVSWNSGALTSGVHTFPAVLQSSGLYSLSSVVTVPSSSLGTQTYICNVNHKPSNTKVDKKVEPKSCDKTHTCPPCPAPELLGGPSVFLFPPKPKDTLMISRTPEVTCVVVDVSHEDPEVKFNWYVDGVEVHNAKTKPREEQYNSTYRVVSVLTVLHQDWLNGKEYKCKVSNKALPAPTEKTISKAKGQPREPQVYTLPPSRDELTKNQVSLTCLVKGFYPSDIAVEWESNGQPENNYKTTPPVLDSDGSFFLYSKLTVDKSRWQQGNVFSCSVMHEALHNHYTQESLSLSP
light: B1 light
notes: homodimerized; mutation in both H chains; label printed T332_14T, read as I332_14T; also called Ho Ab I332_14T
B6: GpH7-B3 variant K326_14T/GpL16-k0 (antibody, human IgG1, kappa)
heavy: not shown
light: B1 light
notes: homodimerized; mutation in both H chains; also called Ho Ab K326_14T
B7: GpH7-B3 variant L328_02A/GpL16-k0 (antibody, human IgG1, kappa)
heavy: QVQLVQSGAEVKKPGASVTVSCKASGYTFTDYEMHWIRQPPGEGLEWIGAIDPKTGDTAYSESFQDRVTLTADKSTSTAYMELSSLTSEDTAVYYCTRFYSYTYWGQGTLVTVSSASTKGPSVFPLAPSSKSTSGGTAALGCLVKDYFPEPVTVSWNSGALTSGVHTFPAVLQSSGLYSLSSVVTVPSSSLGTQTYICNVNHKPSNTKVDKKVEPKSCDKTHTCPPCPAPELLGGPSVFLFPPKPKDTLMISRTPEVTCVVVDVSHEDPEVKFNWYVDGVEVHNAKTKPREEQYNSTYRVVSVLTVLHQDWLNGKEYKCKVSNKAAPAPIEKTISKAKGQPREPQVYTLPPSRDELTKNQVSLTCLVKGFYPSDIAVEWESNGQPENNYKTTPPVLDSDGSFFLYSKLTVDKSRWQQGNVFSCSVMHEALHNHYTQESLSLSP
light: B1 light
notes: homodimerized; mutation in both H chains; also called Ho Ab L328_02A
B8: GpH7-B3 variant H268_18N/GpL16-k0 (antibody, human IgG1, kappa)
heavy: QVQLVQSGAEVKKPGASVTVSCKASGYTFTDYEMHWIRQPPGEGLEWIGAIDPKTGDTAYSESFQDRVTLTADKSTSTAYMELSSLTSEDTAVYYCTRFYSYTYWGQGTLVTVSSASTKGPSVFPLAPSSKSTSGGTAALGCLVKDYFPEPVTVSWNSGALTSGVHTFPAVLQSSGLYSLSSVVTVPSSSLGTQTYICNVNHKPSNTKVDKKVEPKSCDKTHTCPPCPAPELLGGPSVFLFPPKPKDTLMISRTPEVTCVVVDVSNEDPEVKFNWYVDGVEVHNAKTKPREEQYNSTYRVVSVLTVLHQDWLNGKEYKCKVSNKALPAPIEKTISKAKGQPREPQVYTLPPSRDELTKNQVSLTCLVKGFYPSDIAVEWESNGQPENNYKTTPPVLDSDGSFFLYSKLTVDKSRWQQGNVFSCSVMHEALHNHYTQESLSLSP
light: B1 light
notes: homodimerized; mutation in both H chains; also called Ho Ab H268_18N
B9: GpH7-B3 variant K326_20W/GpL16-k0 (antibody, human IgG1, kappa)
heavy: not shown
light: B1 light
notes: homodimerized; mutation in both H chains; also called Ho Ab K326_20W
B10: GpH7-B3 variant K334_02A/GpL16-k0 (antibody, human IgG1, kappa)
heavy: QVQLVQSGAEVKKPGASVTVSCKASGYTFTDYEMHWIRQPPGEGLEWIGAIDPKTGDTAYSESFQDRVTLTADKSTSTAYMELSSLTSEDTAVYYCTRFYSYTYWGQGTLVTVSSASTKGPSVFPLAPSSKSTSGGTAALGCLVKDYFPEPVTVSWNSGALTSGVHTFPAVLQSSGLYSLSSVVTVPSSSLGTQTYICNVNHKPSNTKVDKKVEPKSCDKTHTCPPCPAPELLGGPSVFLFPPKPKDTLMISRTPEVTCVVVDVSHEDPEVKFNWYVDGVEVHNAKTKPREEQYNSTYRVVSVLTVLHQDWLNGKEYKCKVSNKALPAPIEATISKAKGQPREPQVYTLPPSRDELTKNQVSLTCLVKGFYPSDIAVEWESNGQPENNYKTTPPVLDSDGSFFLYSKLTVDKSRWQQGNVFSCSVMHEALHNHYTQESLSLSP
light: B1 light
notes: homodimerized; mutation in both H chains; also called Ho Ab K334_02A
B11: GpH7-B3 variant L328_13S/GpL16-k0 (antibody, human IgG1, kappa)
heavy: not shown
light: B1 light
notes: homodimerized; mutation in both H chains; also called Ho Ab L328_13S
B12: GpH7-B3 variant K334_07I/GpL16-k0 (antibody, human IgG1, kappa)
heavy: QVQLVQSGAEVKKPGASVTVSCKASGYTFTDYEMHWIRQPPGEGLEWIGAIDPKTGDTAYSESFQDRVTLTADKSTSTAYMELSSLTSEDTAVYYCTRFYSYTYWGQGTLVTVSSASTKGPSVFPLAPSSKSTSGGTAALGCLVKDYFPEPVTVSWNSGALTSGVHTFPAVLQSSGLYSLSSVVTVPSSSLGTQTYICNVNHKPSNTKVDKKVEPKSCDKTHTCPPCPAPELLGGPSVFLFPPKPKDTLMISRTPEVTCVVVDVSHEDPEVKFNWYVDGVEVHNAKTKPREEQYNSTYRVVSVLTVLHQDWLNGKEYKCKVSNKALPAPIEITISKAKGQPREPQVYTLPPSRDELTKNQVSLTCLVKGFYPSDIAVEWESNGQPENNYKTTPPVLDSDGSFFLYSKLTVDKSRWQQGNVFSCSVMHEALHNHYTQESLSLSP
light: B1 light
notes: homodimerized; mutation in both H chains; also called Ho Ab K334_07I
B13: GpH7-B3 variant K334_05P/GpL16-k0 (antibody, human IgG1, kappa)
heavy: not shown
light: B1 light
notes: homodimerized; mutation in both H chains; also called Ho Ab K334_05P
B14: GpH7-B3 variant S239_03V/GpL16-k0 (antibody, human IgG1, kappa)
heavy: not shown
light: B1 light
notes: homodimerized; mutation in both H chains; also called Ho Ab S239_03V
B15: GpH7-B3 variant I332_04F/GpL16-k0 (antibody, human IgG1, kappa)
heavy: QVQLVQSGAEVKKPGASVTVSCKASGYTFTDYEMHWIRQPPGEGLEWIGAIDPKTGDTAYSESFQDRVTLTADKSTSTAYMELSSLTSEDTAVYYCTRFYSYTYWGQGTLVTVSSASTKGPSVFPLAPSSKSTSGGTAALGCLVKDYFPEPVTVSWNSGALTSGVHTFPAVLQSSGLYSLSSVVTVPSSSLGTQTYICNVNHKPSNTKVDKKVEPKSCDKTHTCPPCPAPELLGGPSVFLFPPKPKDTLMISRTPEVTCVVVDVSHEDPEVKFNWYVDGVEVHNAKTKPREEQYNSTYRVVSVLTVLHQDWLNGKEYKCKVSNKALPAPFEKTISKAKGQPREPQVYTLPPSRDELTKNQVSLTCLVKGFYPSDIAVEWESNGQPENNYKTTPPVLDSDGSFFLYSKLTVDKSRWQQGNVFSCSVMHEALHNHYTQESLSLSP
light: B1 light
notes: homodimerized; mutation in both H chains; also called Ho Ab I332_04F
B16: GpH7-B3 variant I332_15Y/GpL16-k0 (antibody, human IgG1, kappa)
heavy: not shown
light: B1 light
notes: homodimerized; mutation in both H chains; also called Ho Ab I332_15Y
B17: GpH7-B3 variant K334_10E/GpL16-k0 (antibody, human IgG1, kappa)
heavy: not shown
light: B1 light
notes: homodimerized; mutation in both H chains; also called Ho Ab K334_10E
B18: GpH7-B3 variant I332_06M/GpL16-k0 (antibody, human IgG1, kappa)
heavy: not shown
light: B1 light
notes: homodimerized; mutation in both H chains; also called Ho Ab I332_06M
B19: GpH7-B3 variant K334_03V/GpL16-k0 (antibody, human IgG1, kappa)
heavy: not shown
light: B1 light
notes: homodimerized; mutation in both H chains; also called Ho Ab K334_03V
B20: GpH7-B3 variant K326_09D/GpL16-k0 (antibody, human IgG1, kappa)
heavy: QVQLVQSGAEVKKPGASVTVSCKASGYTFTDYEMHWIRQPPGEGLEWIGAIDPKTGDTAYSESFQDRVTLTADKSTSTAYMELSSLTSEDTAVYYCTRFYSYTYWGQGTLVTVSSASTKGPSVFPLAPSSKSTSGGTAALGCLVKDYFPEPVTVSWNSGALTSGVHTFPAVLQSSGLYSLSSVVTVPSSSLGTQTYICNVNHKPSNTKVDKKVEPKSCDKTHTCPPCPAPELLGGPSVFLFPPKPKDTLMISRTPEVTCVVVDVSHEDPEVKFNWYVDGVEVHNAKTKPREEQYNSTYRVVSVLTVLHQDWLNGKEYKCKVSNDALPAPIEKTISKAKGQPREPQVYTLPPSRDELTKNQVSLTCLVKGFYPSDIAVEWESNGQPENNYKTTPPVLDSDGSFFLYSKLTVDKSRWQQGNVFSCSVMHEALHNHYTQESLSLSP
light: B1 light
notes: homodimerized; mutation in both H chains; also called Ho Ab K326_09D
B21: GpH7-B3 variant K326_06M/GpL16-k0 (antibody, human IgG1, kappa)
heavy: not shown
light: B1 light
notes: homodimerized; mutation in both H chains; also called Ho Ab K326_06M
B22: GpH7-B3 variant K334_14T/GpL16-k0 (antibody, human IgG1, kappa)
heavy: not shown
light: B1 light
notes: homodimerized; mutation in both H chains; also called Ho Ab K334_14T
B23: GpH7-B3 variant G237_20W/GpL16-k0 (antibody, human IgG1, kappa)
heavy: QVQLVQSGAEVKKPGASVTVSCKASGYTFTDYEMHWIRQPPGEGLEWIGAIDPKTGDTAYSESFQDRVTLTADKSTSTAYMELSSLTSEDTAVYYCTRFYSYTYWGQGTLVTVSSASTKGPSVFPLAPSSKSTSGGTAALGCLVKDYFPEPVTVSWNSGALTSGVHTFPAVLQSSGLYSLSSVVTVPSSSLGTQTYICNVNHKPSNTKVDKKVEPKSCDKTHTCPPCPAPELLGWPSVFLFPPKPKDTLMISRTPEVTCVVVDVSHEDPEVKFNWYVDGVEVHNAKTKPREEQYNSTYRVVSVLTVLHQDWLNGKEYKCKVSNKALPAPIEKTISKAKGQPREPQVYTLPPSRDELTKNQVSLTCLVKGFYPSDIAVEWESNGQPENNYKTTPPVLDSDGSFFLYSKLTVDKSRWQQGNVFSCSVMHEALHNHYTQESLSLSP
light: B1 light
notes: homodimerized; mutation in both H chains; also called Ho Ab G237_20W
B24: GpH7-B3 variant P238_15Y/GpL16-k0 (antibody, human IgG1, kappa)
heavy: not shown
light: B1 light
notes: homodimerized; mutation in both H chains; also called Ho Ab P238_15Y
B25: GpH7-B3 variant K334_13S/GpL16-k0 (antibody, human IgG1, kappa)
heavy: not shown
light: B1 light
notes: homodimerized; mutation in both H chains; also called Ho Ab K334_13S
B26: GpH7-B3 variant H268_09D/GpL16-k0 (antibody, human IgG1, kappa)
heavy: not shown
light: B1 light
notes: homodimerized; mutation in both H chains; also called Ho Ab H268_09D
B27: GpH7-B3 variant K334_08L/GpL16-k0 (antibody, human IgG1, kappa)
heavy: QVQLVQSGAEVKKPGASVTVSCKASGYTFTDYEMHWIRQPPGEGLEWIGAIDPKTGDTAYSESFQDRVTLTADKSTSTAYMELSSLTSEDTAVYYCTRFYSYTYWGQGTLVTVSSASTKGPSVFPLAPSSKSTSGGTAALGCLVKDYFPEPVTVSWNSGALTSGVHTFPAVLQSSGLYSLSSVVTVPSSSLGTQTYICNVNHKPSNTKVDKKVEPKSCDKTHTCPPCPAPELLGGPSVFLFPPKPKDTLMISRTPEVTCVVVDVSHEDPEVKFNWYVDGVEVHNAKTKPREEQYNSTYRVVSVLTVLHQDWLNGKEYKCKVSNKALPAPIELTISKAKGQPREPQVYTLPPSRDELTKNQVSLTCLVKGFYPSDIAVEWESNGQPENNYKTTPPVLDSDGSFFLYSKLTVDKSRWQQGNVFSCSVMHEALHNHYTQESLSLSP
light: B1 light
notes: homodimerized; mutation in both H chains; also called Ho Ab K334_08L
B28: GpH7-B3 variant I336_08L/GpL16-k0 (antibody, human IgG1, kappa)
heavy: not shown
light: B1 light
notes: homodimerized; mutation in both H chains; also called Ho Ab I336_08L
B29: GpH7-B3 variant K326_16H/GpL16-k0 (antibody, human IgG1, kappa)
heavy: not shown
light: B1 light
notes: homodimerized; mutation in both H chains; also called Ho Ab K326_16H
B30: GpH7-B3 variant P331_15Y/GpL16-k0 (antibody, human IgG1, kappa)
heavy: not shown
light: B1 light
notes: homodimerized; mutation in both H chains; also called Ho Ab P331_15Y
B31: GpH7-B3 variant H268_13S/GpL16-k0 (antibody, human IgG1, kappa)
heavy: not shown
light: B1 light
notes: homodimerized; mutation in both H chains; also called Ho Ab H268_13S
B32: GpH7-B3 variant L235_20W/GpL16-k0 (antibody, human IgG1, kappa)
heavy: not shown
light: B1 light
notes: homodimerized; mutation in both H chains; also called Ho Ab L235_20W
B33: GpH7-B3 variant P331_16H/GpL16-k0 (antibody, human IgG1, kappa)
heavy: not shown
light: B1 light
notes: homodimerized; mutation in both H chains; also called Ho Ab P331_16H
B34: GpH7-B3 variant K326_08L/GpL16-k0 (antibody, human IgG1, kappa)
heavy: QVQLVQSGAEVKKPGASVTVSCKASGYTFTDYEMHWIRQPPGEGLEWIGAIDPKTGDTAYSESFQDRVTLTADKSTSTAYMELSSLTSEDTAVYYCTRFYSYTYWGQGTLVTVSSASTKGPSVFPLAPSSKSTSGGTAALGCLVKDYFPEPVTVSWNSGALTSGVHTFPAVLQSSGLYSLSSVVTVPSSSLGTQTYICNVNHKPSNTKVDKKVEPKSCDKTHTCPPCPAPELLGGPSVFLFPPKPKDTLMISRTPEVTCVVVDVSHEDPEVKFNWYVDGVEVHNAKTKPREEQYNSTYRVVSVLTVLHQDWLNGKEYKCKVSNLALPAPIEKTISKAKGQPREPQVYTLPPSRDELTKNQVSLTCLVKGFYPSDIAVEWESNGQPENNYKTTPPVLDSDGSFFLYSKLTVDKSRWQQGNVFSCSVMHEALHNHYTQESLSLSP
light: B1 light
notes: homodimerized; mutation in both H chains; also called Ho Ab K326_08L
B35: GpH7-B3 variant H268_10E/GpL16-k0 (antibody, human IgG1, kappa)
heavy: not shown
light: B1 light
notes: homodimerized; mutation in both H chains; also called Ho Ab H268_10E
B36: GpH7-B3 variant K334_04F/GpL16-k0 (antibody, human IgG1, kappa)
heavy: not shown
light: B1 light
notes: homodimerized; mutation in both H chains; also called Ho Ab K334_04F
B37: GpH7-B3 variant K326_10E/GpL16-k0 (antibody, human IgG1, kappa)
heavy: not shown
light: B1 light
notes: homodimerized; mutation in both H chains; also called Ho Ab K326_10E
B38: GpH7-B3 variant K326_15Y/GpL16-k0 (antibody, human IgG1, kappa)
heavy: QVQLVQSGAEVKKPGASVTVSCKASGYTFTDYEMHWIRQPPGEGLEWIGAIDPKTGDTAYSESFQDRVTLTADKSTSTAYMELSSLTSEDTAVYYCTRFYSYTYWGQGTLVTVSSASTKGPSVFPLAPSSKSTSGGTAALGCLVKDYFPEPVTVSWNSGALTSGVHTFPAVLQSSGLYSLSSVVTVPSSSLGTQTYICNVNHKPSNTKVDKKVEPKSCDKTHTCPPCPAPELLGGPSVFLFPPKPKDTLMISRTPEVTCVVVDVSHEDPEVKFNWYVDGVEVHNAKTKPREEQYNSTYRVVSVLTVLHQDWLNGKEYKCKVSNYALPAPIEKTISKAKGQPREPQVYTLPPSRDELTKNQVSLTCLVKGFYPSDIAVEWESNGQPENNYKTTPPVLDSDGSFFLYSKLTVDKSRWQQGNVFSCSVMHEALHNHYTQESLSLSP
light: B1 light
notes: homodimerized; mutation in both H chains; also called Ho Ab K326_15Y
B39: GpH7-B3 variant P238_04F/GpL16-k0 (antibody, human IgG1, kappa)
heavy: not shown
light: B1 light
notes: homodimerized; mutation in both H chains; also called Ho Ab P238_04F
B40: GpH7-B3 variant K326_19Q/GpL16-k0 (antibody, human IgG1, kappa)
heavy: not shown
light: B1 light
notes: homodimerized; mutation in both H chains; label printed K326_190, read as K326_19Q; also called Ho Ab K326_19Q
B41: GpH7-B3 variant P331_20W/GpL16-k0 (antibody, human IgG1, kappa)
heavy: not shown
light: B1 light
notes: homodimerized; mutation in both H chains; also called Ho Ab P331_20W
B42: GpH7-B3 variant P238_09D/GpL16-k0 (antibody, human IgG1, kappa)
heavy: not shown
light: B1 light
notes: homodimerized; mutation in both H chains; also called Ho Ab P238_09D
B43: GpH7-B3 variant K326_03V/GpL16-k0 (antibody, human IgG1, kappa)
heavy: not shown
light: B1 light
notes: homodimerized; mutation in both H chains; also called Ho Ab K326_03V
B44: GpH7-B3 variant I332_10E/GpL16-k0 (antibody, human IgG1, kappa)
heavy: not shown
light: B1 light
notes: homodimerized; mutation in both H chains; also called Ho Ab I332_10E

Target: T1, FcγRIIb extracellular domain with …
Test: SPR (Biacore), captured antibody, FcγRIIb analyte; binding relative to GpH7-B3/GpL16-k0 = 100

Row | Ho/Con_2b | Binder
1 | 140 % of control | B1
2 | 160 % of control | B2
3 | 182 % of control | B3
4 | 158 % of control | B4
5 | 106 % of control | B5
6 | 177 % of control | B6
7 | 117 % of control | B7
8 | 179 % of control | B8
9 | 132 % of control | B9
10 | 110 % of control | B10
11 | 147 % of control | B11
12 | 137 % of control | B12
13 | 112 % of control | B13
14 | 108 % of control | B14
15 | 117 % of control | B15
16 | 109 % of control | B16
17 | 129 % of control | B17
18 | 106 % of control | B18
19 | 145 % of control | B19
20 | 240 % of control | B20
21 | 193 % of control | B21
22 | 138 % of control | B22

Row | Ho/Con_2b | Binder
23 | 166 % of control | B23
24 | 114 % of control | B24
25 | 117 % of control | B25
26 | 298 % of control | B26
27 | 114 % of control | B27
28 | 103 % of control | B28
29 | 131 % of control | B29
30 | 111 % of control | B30
31 | 186 % of control | B31
32 | 116 % of control | B32
33 | 100 % of control | B33
34 | 168 % of control | B34
35 | 275 % of control | B35
36 | 115 % of control | B36
37 | 237 % of control | B37
38 | 162 % of control | B38
39 | 209 % of control | B39
40 | 163 % of control | B40
41 | 111 % of control | B41
42 | 207 % of control | B42
43 | 184 % of control | B43
44 | 181 % of control | B44
